Results reported in patent publication US20160185837A1, “GIP AND GLP-1 RECEPTOR DUAL-AGONISTS FOR THE TREATMENT OF DIABETES” (Medimmune Limited, priority 2013, published 2016).
Where a chain is given by its changes, count along the chain named.

B1: IP337 (Fc fusion)
chain: YSEGTFISDYSIAMDKIHQQDFVNWLLAQKGGGGGSGGGGSGGGGSGGGGSGGGGSGGGGSGGGGSA
B2: IP339 (Fc fusion)
chain: YSEGTFTSDYSKLLEKEAQRLFIEWLLAGGGGGGGSGGGGSGGGGSGGGGSGGGGSGGGGSA
B3: IP209 (Fc fusion)
chain: YSEGTFTSDYSSYMERQAIDEFIAWLLKGGAAAGGSGSTASSGSGSATGGGGAATHTCPPCPAPEF
B4: IP275 (Fc fusion)
chain: YSEGTFTSDYSKLLEKEAQRLFIEWLLKGPGGGGGSGGGGSGGGGSGGGGSATHTCPPC
B5: IP289 (Fc fusion)
chain: B4 chain with Q19E
B6: IP386 (Fc fusion)
chain: YSEGTFISDYSIAMDKIHQQDFVNWLLAQKGGGGGSGGGGSGGGGSGGGGSACPPC
B7: IP392 (Fc fusion)
chain: YSEGTFISDYSIAMDKIHQQDFVNWLLAQKGAANDWKHNITQGGGGSGGGGSGGGGSGGGGSGGGGSGGGGSACPPC
B8: IP398 (Fc fusion)
chain: B7 chain with A32K, A33K
B9: IP344 (Fc fusion)
chain: YSEGTFISDYSIAMDKIHQQDFVNWLLAQKGGGGGSGGGGSGGGGSGGGGSGGGGSA
B10: IP335 (Fc fusion)
chain: YSEGTFISDYSIAMDKIHQQDFVNWLLAQKGGGGGSGGGGSGGGGSGGGGSA
B11: IP299 (Fc fusion)
chain: YSEGTFISDYSKLLEEEAVRDFVEWLKAGGGGGGGSGGGGSGGGGSGGGGSATHTCPPC
B12: IP351 (Fc fusion)
chain: YSEGTFISDYSIAMDKIHQQDFVNWLLAQKPSSGAPPPSGGGGSGGGGSGGGGSGGGGSACPPC
B13: IP338 (Fc fusion)
chain: YSEGTFISDYSIAMDKIHQQDFVNWLLAQKGGGGGSGGGGSGGGGSGGGGSGGGGSGGGGSGGGGSGGGGSAN
B14: IP402 (Fc fusion)
chain: YSEGTFISDYSIAMDKIHQQDFVNWLLAQKGSGGGGSGGGGSGGGGSGGGGSGGGGSGGGGSGGGGSACPPC
B15: IP336 (Fc fusion)
chain: YSEGTFISDYSIAMDKIHQQDFVNWLLAQKGGGGGSGGGGSGGGGSGGGGSGGGGSGGGGSA
B16: IP389 (Fc fusion)
chain: YSEGTFISDYSIAMDKIHQQDFVNWLLAQKGGGGGSGGGGSGGGGSGGGGSGGGGSGGGGSGGGGSACPPC
B17: IP321 (Fc fusion)
chain: YSEGTFISDYSIAMDKIHQQDFVNWLLAGGAAAGGSGSTASSGSGSATGGGGAATHTCPPC
B18: IP247 (Fc fusion)
chain: YSEGTFTSDYSKLLEKIHQQLFIEWLVKGPAAAGGSGSTASSGSGSATGGGGAATHTCPPCPAPEF
B19: IP387 (Fc fusion)
chain: YSEGTFISDYSIAMDKIHQQDFVNWLLAQKGGGGGSGGGGSGGGGSGGGGSGGGGSGGGGSGGGGSGGGGSACPPC
B20: IP359 (Fc fusion)
chain: YSEGTFTSDYSKLLEEEAVRLFIEHLLAGGGGGGSGGGGSGGGGSGGGGSATHTCPPC
B21: IP380 (Fc fusion)
chain: B20 chain with H25F

Target: human glucagon receptor (human) (UniProt P47871)
Assay: cell-based or functional assay

human glucagon receptor (human), sequence (P47871 26-477): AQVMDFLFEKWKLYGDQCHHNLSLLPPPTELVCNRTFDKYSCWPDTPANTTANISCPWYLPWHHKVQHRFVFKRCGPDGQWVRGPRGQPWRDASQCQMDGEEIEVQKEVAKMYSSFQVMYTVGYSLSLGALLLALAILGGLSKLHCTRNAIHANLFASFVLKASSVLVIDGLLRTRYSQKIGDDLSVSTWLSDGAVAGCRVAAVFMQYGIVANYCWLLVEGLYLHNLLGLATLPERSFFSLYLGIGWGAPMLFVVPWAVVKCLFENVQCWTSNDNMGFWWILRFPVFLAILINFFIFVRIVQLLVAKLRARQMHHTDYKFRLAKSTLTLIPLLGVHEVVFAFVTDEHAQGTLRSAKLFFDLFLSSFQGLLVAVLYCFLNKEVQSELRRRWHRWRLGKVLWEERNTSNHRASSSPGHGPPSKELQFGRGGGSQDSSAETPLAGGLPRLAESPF

Row | Binder | cAMP EC50 [nM] | cAMP EC50, Batch 2 [nM]
1 | B1 | 200 | 
2 | B2 | 23 | 
3 | B3 |  | > 6270
4 | B4 | 230 | 
5 | B5 | 240 | 
6 | B6 | 540 | 
7 | B7 | 530 | 
8 | B8 | 1600 | 
9 | B9 | 200 | 
10 | B10 | 280 | 
11 | B11 | 53 | 
12 | B12 | 130 | 
13 | B13 | 190 | 
14 | B14 | 200 | 
15 | B15 | 200 | 
16 | B16 | > 269 | 
17 | B17 | 24 | 
18 | B18 | > 420 | 
19 | B19 | 220 | 
20 | B20 | 43 | 
21 | B21 | 25 | 

Target: human GLP-1 receptor (human) (UniProt P43220)
Assay: cell-based or functional assay

human GLP-1 receptor (human), sequence (P43220 24-463): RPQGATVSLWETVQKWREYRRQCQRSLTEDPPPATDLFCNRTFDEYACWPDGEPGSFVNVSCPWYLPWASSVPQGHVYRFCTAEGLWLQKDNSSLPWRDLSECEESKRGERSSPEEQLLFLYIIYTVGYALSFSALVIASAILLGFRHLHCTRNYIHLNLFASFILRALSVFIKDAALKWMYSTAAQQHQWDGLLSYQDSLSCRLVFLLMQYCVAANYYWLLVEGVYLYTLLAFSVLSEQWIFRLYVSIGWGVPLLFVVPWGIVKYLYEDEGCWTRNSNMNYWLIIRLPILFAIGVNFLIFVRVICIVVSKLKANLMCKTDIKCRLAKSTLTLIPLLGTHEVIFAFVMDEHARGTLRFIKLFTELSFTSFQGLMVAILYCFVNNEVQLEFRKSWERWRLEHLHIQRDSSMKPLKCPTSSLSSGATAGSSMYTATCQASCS

Row | Binder | cAMP EC50 [nM] | cAMP EC50, Batch 2 [nM]
22 | B1 | > 2300 | 
23 | B2 | 0.18 | 
24 | B3 | 0.23 | 0.2
25 | B4 | 0.92 | 
26 | B5 | 3.4 | 
27 | B6 | > 9130 | 
28 | B7 | 2800 | 
29 | B8 | 9500 | 
30 | B9 | > 8550 | 
31 | B10 | > 5480 | 
32 | B11 | > 3640 | 
33 | B12 | 110 | 
34 | B13 | > 1890 | 
35 | B14 | 31 | 
36 | B15 | > 4510 | 
37 | B16 | 65 | 
38 | B17 | 72 | 
39 | B18 | 63 | 
40 | B19 | 370 | 
41 | B20 | 0.061 | 
42 | B21 | 0.11 | 

Target: T1, mouse GIP receptor (mouse) (UniProt Q0P543)
T1 sequence (looked up): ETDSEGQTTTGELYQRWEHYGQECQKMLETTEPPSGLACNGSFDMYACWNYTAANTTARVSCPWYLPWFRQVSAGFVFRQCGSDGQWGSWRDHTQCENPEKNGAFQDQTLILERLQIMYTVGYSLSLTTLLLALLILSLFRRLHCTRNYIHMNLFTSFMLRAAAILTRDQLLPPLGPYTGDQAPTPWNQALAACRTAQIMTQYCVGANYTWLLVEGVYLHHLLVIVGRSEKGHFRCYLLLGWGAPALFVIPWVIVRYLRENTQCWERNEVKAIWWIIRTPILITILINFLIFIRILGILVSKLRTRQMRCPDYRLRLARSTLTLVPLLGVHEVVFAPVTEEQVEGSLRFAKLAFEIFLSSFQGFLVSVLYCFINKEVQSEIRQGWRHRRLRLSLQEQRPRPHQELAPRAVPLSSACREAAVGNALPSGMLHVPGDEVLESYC
Assay: cell-based or functional assay

Row | Binder | cAMP EC50 [nM] | cAMP EC50, Batch 2 [nM]
43 | B1 | 0.013 | 
44 | B2 | 0.091 | 
45 | B3 | 4.9 | > 6300
46 | B4 | 0.26 | 
47 | B5 | 0.44 | 
48 | B6 | 0.03 | 
49 | B7 | 0.031 | 
50 | B8 | 0.012 | 
51 | B9 | 0.011 | 
52 | B10 | 0.02 | 
53 | B11 | 210 | 
54 | B12 | 0.0098 | 
55 | B13 | 0.012 | 
56 | B14 | 0.033 | 
57 | B15 | 0.012 | 
58 | B16 | 0.017 | 
59 | B17 | 0.017 | 
60 | B18 | 2.3 | 
61 | B19 | 0.019 | 
62 | B20 | 8.3 | 
63 | B21 | 6.6 | 

Target: T2, rat GIP receptor (rat) (UniProt P43219)
T2 sequence (looked up): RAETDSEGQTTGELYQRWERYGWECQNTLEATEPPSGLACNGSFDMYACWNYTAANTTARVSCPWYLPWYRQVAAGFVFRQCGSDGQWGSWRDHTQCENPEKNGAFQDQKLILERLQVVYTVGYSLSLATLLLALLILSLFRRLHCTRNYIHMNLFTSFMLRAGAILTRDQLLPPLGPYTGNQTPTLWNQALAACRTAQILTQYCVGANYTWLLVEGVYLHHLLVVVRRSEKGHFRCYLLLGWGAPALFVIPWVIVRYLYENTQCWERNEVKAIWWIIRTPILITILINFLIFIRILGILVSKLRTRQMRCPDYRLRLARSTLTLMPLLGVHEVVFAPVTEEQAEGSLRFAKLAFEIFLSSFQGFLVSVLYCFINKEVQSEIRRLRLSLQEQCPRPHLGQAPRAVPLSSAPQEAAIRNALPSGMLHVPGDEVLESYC
Assay: cell-based or functional assay

Row | Binder | cAMP EC50 [nM] | cAMP EC50, Batch 2 [nM]
64 | B1 | 0.0052 | 
65 | B2 | 0.012 | 
66 | B3 | 0.22 | 1.3
67 | B4 | 0.014 | 
68 | B5 | 0.02 | 
69 | B6 | 0.0085 | 
70 | B7 | 0.0076 | 
71 | B8 | 0.0056 | 
72 | B9 | 0.0062 | 
73 | B10 | 0.0067 | 
74 | B11 | 0.11 | 
75 | B12 | 0.0063 | 
76 | B13 | 0.005 | 
77 | B14 | 0.0068 | 
78 | B15 | 0.0047 | 
79 | B16 | 0.0072 | 
80 | B17 | 0.0079 | 
81 | B18 | 0.03 | 
82 | B19 | 0.0075 | 
83 | B20 | 0.039 | 
84 | B21 | 0.06 | 

Target: mouse GLP-1 receptor (mouse) (UniProt O35659)
Assay: cell-based or functional assay

mouse GLP-1 receptor (mouse), sequence (O35659 22-463): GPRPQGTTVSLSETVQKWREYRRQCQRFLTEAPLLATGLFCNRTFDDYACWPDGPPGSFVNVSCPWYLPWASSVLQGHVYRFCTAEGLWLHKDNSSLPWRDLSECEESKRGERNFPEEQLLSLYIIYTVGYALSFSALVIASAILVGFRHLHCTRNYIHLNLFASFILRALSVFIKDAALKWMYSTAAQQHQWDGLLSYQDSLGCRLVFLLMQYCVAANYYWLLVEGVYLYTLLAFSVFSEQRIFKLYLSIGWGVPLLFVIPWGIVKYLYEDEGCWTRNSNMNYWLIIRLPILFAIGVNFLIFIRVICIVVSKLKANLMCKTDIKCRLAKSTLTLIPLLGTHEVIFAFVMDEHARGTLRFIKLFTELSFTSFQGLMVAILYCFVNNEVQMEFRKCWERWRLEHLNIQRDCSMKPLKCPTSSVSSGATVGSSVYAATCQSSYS

Row | Binder | cAMP EC50 [nM] | cAMP EC50, Batch 2 [nM]
85 | B1 | > 1150 | 
86 | B2 | 1.6 | 
87 | B3 | 0.84 | 1.6
88 | B4 | 1.7 | 
89 | B5 | 6.8 | 
90 | B6 | > 16600 | 
91 | B7 | > 17100 | 
92 | B8 | > 17200 | 
93 | B9 | > 8550 | 
94 | B10 | > 2740 | 
95 | B11 | > 3640 | 
96 | B12 | 820 | 
97 | B13 | > 945 | 
98 | B14 | 850 | 
99 | B15 | > 2260 | 
100 | B16 | 1300 | 
101 | B17 | 330 | 
102 | B18 | 280 | 
103 | B19 | > 1470 | 
104 | B20 | 0.2 | 
105 | B21 | 1.2 | 

Target: rat GLP-1 receptor (rat) (UniProt P32301)
Assay: cell-based or functional assay

rat GLP-1 receptor (rat), sequence (P32301 22-463): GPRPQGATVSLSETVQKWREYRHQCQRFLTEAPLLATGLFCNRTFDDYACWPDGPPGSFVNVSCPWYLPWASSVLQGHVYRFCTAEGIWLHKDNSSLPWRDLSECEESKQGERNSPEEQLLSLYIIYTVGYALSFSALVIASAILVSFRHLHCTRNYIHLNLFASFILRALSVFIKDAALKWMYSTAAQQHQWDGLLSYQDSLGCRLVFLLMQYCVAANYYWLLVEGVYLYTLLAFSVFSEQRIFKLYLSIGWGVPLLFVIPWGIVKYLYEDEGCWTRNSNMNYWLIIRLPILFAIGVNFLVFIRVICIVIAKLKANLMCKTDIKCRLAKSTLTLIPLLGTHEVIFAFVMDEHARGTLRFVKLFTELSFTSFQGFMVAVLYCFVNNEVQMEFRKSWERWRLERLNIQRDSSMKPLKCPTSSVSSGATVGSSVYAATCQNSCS

Row | Binder | cAMP EC50 [nM] | cAMP EC50, Batch 2 [nM]
106 | B1 | > 1150 | 
107 | B2 | 0.05 | 
108 | B3 | 0.075 | 0.091
109 | B4 | 0.062 | 
110 | B5 | 0.23 | 
111 | B6 | > 16600 | 
112 | B7 | 720 | 
113 | B8 | 14000 | 
114 | B9 | > 8550 | 
115 | B10 | > 2740 | 
116 | B11 | 19 | 
117 | B12 | 210 | 
118 | B13 | > 945 | 
119 | B14 | 11 | 
120 | B15 | > 2260 | 
121 | B16 | 9.9 | 
122 | B17 | 22 | 
123 | B18 | 11 | 
124 | B19 | 110 | 
125 | B20 | 0.04 | 
126 | B21 | 0.031 | 

Target: T3, human GIP receptor (human) (UniProt P48546)
T3 sequence (looked up): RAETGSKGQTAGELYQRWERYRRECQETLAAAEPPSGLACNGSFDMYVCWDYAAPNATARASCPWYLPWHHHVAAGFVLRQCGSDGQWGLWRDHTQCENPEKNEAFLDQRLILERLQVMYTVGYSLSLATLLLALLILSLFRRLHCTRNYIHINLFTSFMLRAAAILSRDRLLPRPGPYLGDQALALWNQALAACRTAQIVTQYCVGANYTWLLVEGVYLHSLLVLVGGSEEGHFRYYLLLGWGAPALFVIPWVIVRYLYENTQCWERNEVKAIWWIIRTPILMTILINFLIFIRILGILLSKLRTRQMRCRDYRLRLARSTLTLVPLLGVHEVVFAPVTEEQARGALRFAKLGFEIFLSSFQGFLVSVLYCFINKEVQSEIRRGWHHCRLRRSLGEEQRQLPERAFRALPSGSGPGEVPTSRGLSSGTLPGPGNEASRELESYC
Assay: cell-based or functional assay

Row | Binder | cAMP EC50 [nM] | cAMP EC50, Batch 2 [nM]
127 | B1 | 0.0062 | 
128 | B2 | 0.0098 | 
129 | B3 | 0.058 | 0.028
130 | B4 | 0.0087 | 
131 | B5 | 0.01 | 
132 | B6 | 0.0034 | 
133 | B7 | 0.0026 | 
134 | B8 | 0.0037 | 
135 | B9 | 0.0053 | 
136 | B10 | 0.0058 | 
137 | B11 | 0.021 | 
138 | B12 | 0.0036 | 
139 | B13 | 0.0052 | 
140 | B14 | 0.038 | 
141 | B15 | 0.005 | 
142 | B16 | 0.0027 | 
143 | B17 | 0.0096 | 
144 | B18 | 0.019 | 
145 | B19 | 0.0045 | 
146 | B20 | 0.011 | 
147 | B21 | 0.0084 | 
